Ten proteins from PMC6940849, “Structure-Based Redesign of a Self-Sufficient Flavin-Containing Monooxygenase towards Indigo Production” (International Journal of Molecular Sciences, 2019) can be followed below.

To fix the notation:
B1: *mFMO (PTDH-*mFMO; mFMO M15L/S23A) (Methylophaga thalassica; M15L/S23A/W319A) (protein)
chain: MATRIAILGAGPSGLAQLRAFQAAQEKGAEIPELVCFEKQADWGGQWNYTWRTGLDENGEPVHSSMYRYLWSNGPKECLEFADYTFDEHFGKPIASYPPREVLWDYIKGRVEKAGVRKYIRFNTAVRHVEFNEDSQTFTVTVQDHTTDTIYSEEFDYVVCCTGHFSTPYVPEFEGFEKFGGRILHAHDFRDALEFKDKTVLLVGSSYSAEDIGSQCYKYGAKKLISCYRTAPMGYKWPENWDERPNLVRVDTENAYFADGSSEKVDAIILCTGYIHHFPFLNDDLRLVTNNRLWPLNLYKGVVWEDNPKFFYIGMQDQAYSFNMFDAQAWYARDVIMGRLPLPSKEEMKADSMAWREKELTLVTAEEMYTYQGDYIQNLIDMTDYPSFDIPATNKTFLEWKHHKKENIMTFRDHSYRSLMTGTMAPKHHTPWIDALDDSLEAYLSDKSEIPVAKEA
notes: N-terminal fusion to phosphite dehydrogenase (PTDH, cofactor regeneration; pCRE3-mFMO), Ni-Sepharose purified from E. coli NEB10beta
B2: *mFMO (PTDH-*mFMO; mFMO M15L/S23A) (Methylophaga thalassica; C78V/M15L/S23A) (protein)
chain: B1 chain with C78V, A319W
notes: as for B1
B3: *mFMO (PTDH-*mFMO; mFMO M15L/S23A) (Methylophaga thalassica; M15L/S23A/W319F) (protein)
chain: B1 chain with A319F
notes: as for B1
B4: *mFMO (PTDH-*mFMO; mFMO M15L/S23A) (Methylophaga thalassica; C78A/M15L/S23A) (protein)
chain: B1 chain with C78A, A319W
notes: as for B1
B5: *mFMO (PTDH-*mFMO; mFMO M15L/S23A) (Methylophaga thalassica; M15L/S23A/W319A/Y207W) (protein)
chain: B1 chain with Y207W
notes: as for B1
B6: *mFMO (PTDH-*mFMO; mFMO M15L/S23A) (Methylophaga thalassica; C78I/M15L/S23A) (protein)
chain: B1 chain with C78I, A319W
notes: as for B1
B7: *mFMO (PTDH-*mFMO; mFMO M15L/S23A) (Methylophaga thalassica; C78L/M15L/S23A) (protein)
chain: B1 chain with C78L, A319W
notes: as for B1
B8: *mFMO (PTDH-*mFMO; mFMO M15L/S23A) (Methylophaga thalassica; C78I/M15L/S23A/W319A/Y207W) (protein)
chain: B1 chain with C78I, Y207W
notes: as for B1
B9: *mFMO (PTDH-*mFMO; mFMO M15L/S23A) (Methylophaga thalassica; M15L/S23A/Y207W) (protein)
chain: B1 chain with Y207W, A319W
notes: as for B1
B10: *mFMO (PTDH-*mFMO; mFMO M15L/S23A) (Methylophaga thalassica; M15L/S23A) (protein)
chain: B1 chain with A319W
notes: as for B1

As usually defined, the Km is the concentration of substrate that gives half-maximal velocity. The term kcat denotes the number of substrate molecules converted per active site and unit of time at saturation.

Numbering of substitutions follows the chain as printed. Names and notes keep the numbering of the source.

Substrate in the first data set: c1ccc2[nH]ccc2c1
Description: purified protein. Format: biochemical, Methylophaga thalassica. The following applies: NADPH; indole up to 1.6 mM.
Turning to B1, the Km came to 900 µM and the kcat was 0.42 s⁻¹.
The matching figures for B2: 700 µM and 1.04 s⁻¹.
For B3, in that order: 400 µM and 0.64 s⁻¹.
For B4, the Km was 400 µM and the kcat was 0.79 s⁻¹.
For B5, in that order: 800 µM and 0.8 s⁻¹.
On to B6, for which the Michaelis-Menten constant (Km) was 800 µM and the kcat is 1.28 s⁻¹.
The matching figures for B7: 800 µM and 0.7 s⁻¹.
The matching figures for B8: 800 µM and 0.93 s⁻¹.
The matching figures for B9: 100 µM and 0.31 s⁻¹.

The same data set, now with this note: NADPH; indole up to 1.6 mM; listed as printed as WT, table title says *mFMO.
For the protein B10, the Km came out at 400 µM and the kcat was 0.85 s⁻¹.
